Test results published in patent US10654908B2, “Isolated T cell receptors and methods of use therefor” (University of Virginia Patent Foundation, priority 2014, dated 2020).

Tested on: pIRS-2 pulsed C1R-A2 or C1R-AAD target cells
Test: IFN-γ ELISA of TCR-expressing human CD8 T-cells with pulsed C1R-A2 or C1R-AAD targets (pIRS-2)
Type: cell-based
Conditions: 18-20 hours co-culture
Protocol: Human CD8 T-cells were electroporated with IVT RNA encoding murine TCR αβ chains specific for pIRS-2 (pIRS2 BK TCR; FIG. 10A; SEQ ID NO: 2) or pDesmuslin (A10 (right to left hatched boxes) or A11 (left to right hatched boxes) TCR chains; FIG. 10B), and assayed 12-14 hours later. TCR-expressing human CD8 T-cells were co-cultured for 18-20 hours with C1R-A2 or C1R-AAD pulsed or unpulsed target cells. Supernatants were then harvested and IFN-γ was detected by ELISA. No RNA controls underwent electroporation with no addition of IVT RNA (open squares).

B1: pIRS2 BK TCR: second murine TCR specific for the IRS-2 phosphopeptide; α chain SEQ ID NO: 8, β chain SEQ ID NO: 10 (protein, listed as Mus musculus)
alpha: MLLALLPVLGIHFVLRDAQAQSVTQPDARVTVSEGASLQLRCKYSYSGTPYLFWYVQYPRQGLQLLLKYYSGDPVVQGVNGFEAEFIKSNSSFHLRKASVHWSDSAVYFCAVSAGSGGKLTLGAGTRLQVNLDIQNPEPAVYQLKDPRSQDSTLCLFTDFDSQVNVPKTMESGTFIADKTVLDMKAMDSKSNGAIAWSNQTSFTCQDIFKETNATYPSSDVPCDATLTEKSFETDMNLNFQNLSVMGLRILLLKVAGFNLLMTLRLWSS
beta: MGSRLFFVVLILLCAKHMEAAVTQSPRSKVAVTGGKVTLSCHQANNHDYMYWYRQDTGHGLRLIHYSYVADSTEKGDIPDGYKASRPSQENFSLILELASLSQTAVYFCASSDRDNYAEQFFGPGTRLTVLEDLRNVTPPKVSLFEPSKAEIANKQKATLVCLARGFFPDHVELSWWVNGKEVRSGVSTDPQAYKESNYSYCLSSRLRVSATFWHNPRNHFRCQVQFHGLSEEDKWPEGSPKPVTQNISAEAWGRADCGITSASYHQGVLSATILYEILLGKATLYAVLVSGLVLMAMVKKKNS
recognition of HLA-A2+ targets and effector function (IFN-γ ELISA): conferred recognition of HLA-A2+ targets and effector function
